The text below walks through data of article PMC5988292 (2018).

The experiment concerns the target YFP-RhoA·GTPγS (UniProt P61586 1-193). Nature of the experiment: FRET; competition with CFP-PRG-PH.

Chain of YFP-RhoA·GTPγS (P61586 whole entry): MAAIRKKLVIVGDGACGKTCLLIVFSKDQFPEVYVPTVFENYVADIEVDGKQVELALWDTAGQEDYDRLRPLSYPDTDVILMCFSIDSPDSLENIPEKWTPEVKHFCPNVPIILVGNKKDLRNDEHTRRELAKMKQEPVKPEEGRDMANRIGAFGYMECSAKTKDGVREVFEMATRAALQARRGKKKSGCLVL

B1: PH domain from p190RhoGEF (domain or fragment)
chain: TLLYDGLVYWKTATGRFKDILALLLTDVLLFLQEKDQKYIFAAVDQKPSVISLQKLIAREVANEERGMFLISASSAGPEMYEIHTNSKEERNNWMRRIQQAVE
By IC50 is commonly meant the concentration that gives 50% inhibition. Turning to B1, the IC50 turned out to be 7.2 µM.

B2: PRG-PH (non-fluorescent PH domain of PDZRhoGEF) (domain or fragment)
chain: VKQTENRHRLEGYQKRLDATALERASNPLAAEFKSLDLTTRKMIHEGPLTWRISKDKTLDLHVLLLEDLLVLLQKQDEKLLLKCHSKTAVGSSDSKQTFSPVLKLNAVLIRSVATDKRAFFIICTSKLGPPQIYELVALTSSDKNTWMELLEEAVRNATRHP
On to B2, for which the IC50 was found to be 3.4 µM. Compared with the last molecule, the IC50 is about 2.1-fold lower.

B3: p115-PH (PH domain of p115RhoGEF) (domain or fragment)
chain: KLVHEGPLTWRVTKDKAVEVHVLLLDDLLLLLQRQDERLLLKSHSRTLTPTPDGKTMLRPVLRLTSAMTREVATDHKAFYVLFTWDQEAQIYELVAQTVSERKNWCALITETAG
B3 showed an IC50 of 170 µM.

B4: PH domain from LARG (domain or fragment)
chain: KMIHEGPLVWKVNRDKTIDLYTLLLEDILVLLQKQDDRLVLRCHSKILASTADSKHTFSPVIKLSTVLVRQVATDNKALFVISMSDNGAQIYELVAQTVSEKTVWQDLICRMAA
As for B4, the IC50 stood at 10.5 µM.
